Reference: patent US20120149881A1

B1: murine anti-IgE/M1′ antibody 7A6 (antibody)
heavy: QVQLQQSGAELVRPGASVTLSCKASGYTFIDYEMHWVKQTPVHGLEWIGAIDPETGTTAYNQKFKGKATLTAAKSSSTAYMELRSLTSEDSAVYYCTRLRPHYDYDNAMDSWGQGTTLTVSSASTKGPSVYPLAPGSAAQTNSMVTLGCLVKGYFPEPVTVTWNSGSLSSGVHTFPAVLQSDLYTLSSSVTVPSSTWPSETVTCNVAHPASSTKVDKKIVPRDCGCKPCICTVPEVSSVFIFPPKPKDVLTITLTPKVTCVVVDISKDDPEVQFSWFVDDVEVHTAQTQPREEQFNSTFRSVSELPIMHQDWLNGKEFKCRVNSAAFPAPIEKTISKTKGRPKAPQVYTIPPPKEQMAKDKVSLTCMITDFFPEDITVEWQWNGQPAENYKNTQPIMDTDGSYFVYSKLNVQKSNWEAGNTFTCSVLHEGLHNHHTEKSLSHSPGK
light: DIVMSQSPSSLTVSVGEKVTLSCKSSQTLLYSTNQKNYLAWYQQKPGQSPKLLIYWASTRESGVPDRFTGSGSGTDFTLTISSVKAEDLAVYYCQQYYSYPYTFGGGTKVEIKRADAAPTVSIFPPSSEQLTSGGASVVCFLNNFYPKDINVKWKIDGSERQNGVLNSWTDQDSKDSTYSMSSTLTLTKDEYERHNSYTCEATHKTSTSPIVKSFNRNEC
B2: murine anti-IgE/M1′ antibody 47H4 (antibody)
heavy: EVKLVESGGGLVQPGGSRKLSCAASGFTFSDYGMAWVRQAPGKGPEWVAFISDLAYTIYYADTVTGRFTISRENAKNTLYLEMSSLRSEDTALYYCARDNWDAMDYWGQGTSVTVSSAKTTPPSSVYPLAPGSAAQTNSMVTLGCLVKGYFPEPVTVTWNSGSLSSGVHTFPAVLQSDLYTLSSSVTVPSSTWPSETVTCNVAHPASSTKVDKKIVPRDCGCKPCICTVPEVSSVFIFPPKPKDVLTITLTPKVTCVVVDISKDDPEVQFSWFVDDVEVHTAQTQPREEQFNSTFRSVSELPIMHQDWLNGKEFKCRVNSAAFPAPIEKTISKTKGRPKAPQVYTIPPPKEQMAKDKVSLTCMITDFFPEDITVEWQWNGQPAENYKNTQPIMDTDGSYFVYSKLNVQKSNWEAGNTFTCSVLHEGLHNHHTEKSLSHSPGK
light: DIVLTQTPLSLPVSLGDQASISCRSSQSLVHNNGNTYLHWYLQKPGQSPKLLIYKVSNRFSGVPDRFSGSGSGTDFTLKISRLEAEDLGVYFCSQNTLVPWTFGGGTKVEIKRADAAPTVSIFPPSSEQLTSGGASVVCFLNNFYPKDINVKWKIDGSERQNGVLNSWTDQDSKDSTYSMSSTLTLTKDEYERHNSYTCEATHKTSTSPIVKSFNRNEC
B3: afucosylated humanized anti-IgE/M1′ antibody 47H4 v5 (antibody, V domains shown)
VH: EVQLVESGGGLVQPGGSLRLSCAASGFTFSDYGIAWVRQAPGKGLEWVAFISDLAYTIYYADTVTGRFTISRDNSKNTLYLQMNSLRAEDTAVYYCARDNWDAMDYWGQGTLVTVSS
VL: DIQMTQSPSSLSASVGDRVTITCRSSQSLVHNNANTYLHWYQQKPGKAPKLLIYKVSNRFSGVPSRFSGSGSGTDFTLTISSLQPEDFATYYCSQNTLVPWTFGQGTKVEIKR
modifications: here or on the partner: afucosylated Fc carbohydrate (produced in BIOWA cell lines)
B4: humanized anti-IgE/M1′ antibody 47H4.v5 (antibody, V domains shown)
VH: B3 VH
VL: B3 VL
B5: murine anti-IgE/M1′ antibody 26A11 (antibody)
heavy: EVQLQQSGPELVKPGASVKMSCKASGYTFTDYYMMWVKQSHGKSLEWIGDINPNNYDTSYNQKFKGKATLTVDKSSSTAYIQLNSLTSEDSAVYYCASKAYWGQGTLVTVSAASTTPPSVYPLAPGSAAQTNSMVTLGCLVKGYFPEPVTVTWNSGSLSSGVHTFPAVLQSDLYTLSSSVTVPSSTWPSETVTCNVAHPASSTKVDKKIVPRDCGCKPCICTVPEVSSVFIFPPKPKDVLTITLTPKVTCVVVDISKDDPEVQFSWFVDDVEVHTAQTQPREEQFNSTFRSVSELPIMHQDWLNGKEFKCRVNSAAFPAPIEKTISKTKGRPKAPQVYTIPPPKEQMAKDKVSLTCMITDFFPEDITVEWQWNGQPAENYKNTQPIMDTDGSYFVYSKLNVQKSNWEAGNTFTCSVLHEGLHNHHTEKSLSHSPGK
light: DIQMTQTTSSLSASLGDRVTITCRSSQDISNSLNWYQQKPDGPVKLLIYSTSRLHSGVPSRFSGSGSGTDYSLTISNLEQEDLATYFCQQGHTLPWTFGGGTKVEIKRADAAPTVSIFPPSSEQLTSGGASVVCFLNNFYPKDINVKWKIDGSERQNGVLNSWTDQDSKDSTYSMSSTLTLTKDEYERHNSYTCEATHKTSTSPIVKSFNRNEC

Biological target: human IgE with the M1′ sequence (long form of membrane IgE) expressed on transduced BJAB or Daudi cells (human), P01854
Sequence (P01854 116-546 I515L limits assumed): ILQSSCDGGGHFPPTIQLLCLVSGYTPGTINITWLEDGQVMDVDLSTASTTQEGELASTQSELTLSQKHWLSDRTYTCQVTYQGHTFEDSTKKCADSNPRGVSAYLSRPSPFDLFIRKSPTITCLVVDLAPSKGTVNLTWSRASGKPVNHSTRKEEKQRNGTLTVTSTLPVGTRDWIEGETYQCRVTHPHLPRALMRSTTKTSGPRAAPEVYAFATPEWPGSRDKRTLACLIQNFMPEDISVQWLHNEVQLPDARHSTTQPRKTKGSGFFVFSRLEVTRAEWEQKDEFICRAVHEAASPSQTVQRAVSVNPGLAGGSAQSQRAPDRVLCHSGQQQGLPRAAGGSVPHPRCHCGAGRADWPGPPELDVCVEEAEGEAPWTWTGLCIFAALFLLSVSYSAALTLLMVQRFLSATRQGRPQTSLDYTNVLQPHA
Experiment: cell-based or functional assay

Row | Binder | apoptosis of Daudi-IgE/Long cells (Annexin V/PI, 72 h), no crosslinker; concentration at which seen [µg/mL] | EC50 of ADCC: NK-cell lysis of BJAB cells overexpressing human IgE/M1′ (LDH release) [nM] | further results
1 | B1 | > 10 |  | 
2 | B2 | > 10 |  | 
3 | B3 |  | 0.83 | 
4 | B4 |  | 6.6 | 
5 | B5 |  |  | apoptosis of Daudi-IgE/Long cells, no crosslinker; concentration at which seen: > 0.1 µg/mL; percent apoptosis of Daudi-IgE/Long cells, no crosslinker: 30 to 50%
